Laboratory results from patent US12723255B2, “Herbicide tolerance genes and methods of use thereof” (priority 2014, dated 2026).
Substitutions are numbered along the chain they refer to.

B1: MON-HT3: engineered oxygenase protein, amino acid sequence SEQ ID NO:22 (protein)
chain: MHAALSPLSQRFERIAVQPLTGVLGAEITGVDLREPLDDSTWNEILDAFHTYQVIYFPGQAITNEQHIAFSRRFGPVDPVPLLKSIEGYPEVQMIRREANESGRVIGDDWHTDSTFLDAPPAAVVMYAKEVPPYGGDTLFASMYTAWETLSPTMQATIEGLNVVHSATRVFGSLYQAQNRRFSNTSVKVMDVDAGDRETVHPLVVTHPETGRKGLYVNQVYCQRIEGMSEKESEPLLSFLFAHATKPEFTCRVRWQEGQVLVWDNLCTQHFAVPDYAGKFRYLTRTTVGGVRPAR
B2: MON-HT4: engineered oxygenase protein, amino acid sequence SEQ ID NO:25 (protein)
chain: MHAALTPLTNKYRFIDVQPLTGVLGAEITGVDLREPLDDSTWNEILDAFHTYQVIYFPGQAITNEQHIAFSRRFGPVDPVPLLKSIEGYPEVQMIRREANESGRVIGDDWHTDSTFLDAPPAAVVMYAREVPPYGGDTGFLSMYTAWETLSPTMQATIEGLNVVHSATRVFGSLYQAQNRRYSNTSVKVMDVDAGDRETVHPLVVSHPVTGRRALYCNQVYCQRIEGMTDAESKSLLQFLYEHATKFDFTCRVRWKKDQVLVWDNLCTMHRAVPDYAGKFRYLTRTTVAGDKPSR
B3: MON-HT6: engineered oxygenase protein, amino acid sequence SEQ ID NO:31 (protein)
chain: MHAALSPLSQKYRFIDVQPLTGVLGAEITGVTLREPLDDNTWNEILDAFHTYQVIYFPGQAITNEQHIAFSRRFGPVDPVPLLKSIEGYPEVQMIRREANESGRVIGDDWHTDSTFLDAPPAAVVMYAREVPPYGGDTGFLSMYSAWDTLSDTMKATIEGLNVVHSATRVFGSLYQAQNRRFSNTSVKVMDVDAGDRETVHPLVVSHPVTGRRALYCNQVYCQRIEGMTDAESKPLLQFLYEHATRFDFTCRVRWKKDQVLVWDNLCTMHRAVPDYAGKFRYLTRTTVAGDKPSR
B4: MON-HT7: engineered oxygenase protein, amino acid sequence SEQ ID NO:34 (protein)
chain: MHAALTPLTNKYRFIDVQPLTGVLGAEITGVDLREPLDDSTWNEILDAFHTYQVIYFPGQAITNEQHIAFSRRFGPVDPVPLLKSIEGYPEVQMIRREANESGRVIGDDWHADSTFLDAPPAAVVMRAIEVPEYGGDTGFLSMYSAWETLSPTMQATIEGLNVVHSATKVFGSLYQATNWRFSNTSVKVMDVDAGDRETVHPLVVTHPVTGRRALYCNQVYCQKIQGMTDAESKSLLQFLYEHATKFDFTCRVRWKKDQVLVWDNLCTMHRSVPDYAGKFRYLTRTTVAGDKPSR
B5: MON-HT5: engineered oxygenase protein, amino acid sequence SEQ ID NO:28 (protein)
chain: B4 chain with A112T, S272A
B6: MON-HT55: engineered oxygenase protein, amino acid sequence SEQ ID NO:11 (protein)
chain: B1 chain with D108E, D109N, V131I, A141T, Q259D, F271Y

System: F1 hybrid maize plants
Test: efficacy field trial with segregating F1 hybrid plants
Format: in vivo
Details: CTP A; 2,4-D amine 2× at VE-V2 (plus quizalofop-P 0.5×), V4, V8
Procedure: Ten unique engineered proteins optimized for activity at higher temperatures were selected for maize transformation and analysis in plants. DNA constructs were produced for expressing these engineered proteins with codon usage optimized for monocot expression using methods known to those skilled in the art. Enhancers, promoters, leaders, introns, CTPs, and 3′UTRs were tested in various combinations with the engineered proteins in these DNA constructs. The DNA constructs were used to transform immature maize (LH244) embryos with these vectors using Agrobacterium tumifaciens and standard methods known in the art. Regenerated R0 transgenic plantlets were grown in the green house.
Transgenic R0 maize plants were screened by the application of quizalofop-P (2×) plus 2,4-D (2×) at 7 to 10 days following transplant into plugs (generally corresponding to V3-V4 growth stage). All constructs tested produced plants containing unique events that passed the RO screen. The R0 plants were selfed to generate R1 homozygous seed and the R0 was also used as the male to cross with inbred plants containing maize event MON89034 to generate segregating F1 hybrid seed for efficacy field trials.
An efficacy field trial was conducted with segregating F1 hybrid plants, with 50% hemizygous and 50% null for the transgene. Tolerance to quizalofop-P (2×) plus 2,4-D (2×) was assessed using two herbicide application regimens: (1) quizalofop-P (Assure II) at 0.16 lb ai/acre (2×) plus 0.25% v/v non-ionic surfactant (NIS) applied at VE-V2 growth stage followed by the same at V4 growth stage followed by the same at V8 growth stage and (2) 2,4-D amine at 2 lb ae/acre (2×) plus quizalofop-P at 0.04 lb ai/acre (0.5×) plus 0.25% v/v NIS applied at VE-V2 growth stage followed by 2,4-D amine at 2 lb ae/acre (2×) plus 0.25% v/v NIS applied at V4 growth stage followed by the same at V8 growth stage. The 50% of the plants that were null for transgene were removed by the first quizalofop-P application at VE-V2 growth stage. Plots were visually rated 10-14 days after application for crop injury on a scale of 0 to 100 with “0” being none and “100” being complete crop destruction. […] The percentage injury rating with 2× application of 2,4-D at V8 growth stage ranged from a high of 40% to a low of 0. Similarly, the percentage injury rating with 2× application of quizalofop-P at V8 growth stage ranged from a high of 90% to a low of 0. Variation in injury rating between plants expressing the same protein is likely due to variations in construct design or transgene insertion location.

| Molecule | % Injury from V4 2,4-D | % Injury from V8 2,4-D |
| --- | --- | --- |
| B1 | 21.7% | 9.2% |
| B2 | 22.3% | 12.3% |
| B3 | 27% | 12.7% |
| B4 | 21.6% | 16.6% |
| B5 | 27.2% | 17.4% |

Same assay, conditions: CTP A; quizalofop-P 2× at VE-V2, V4, V8

| Molecule | % Injury from V4 Quizalofop | % Injury from V8 Quizalofop |
| --- | --- | --- |
| B1 | 1.6% | 0.5% |
| B2 | 6.1% | 0% |
| B3 | 8% | 1.7% |
| B4 | 31.2% | 5% |
| B5 | 6.8% | 1.7% |

System: not listed separately
Test: kinetic analysis, non-endpoint assay at 23° C.
Format: biochemical
Details: not given
Excerpt: For the fifth screen, recombinant protein for each of the eleven engineered proteins was produced and purified for an in-depth biochemical analysis. This biochemical analysis included: (1) kinetic analysis (Vmax and Km), (2) activity assays over a range of temperatures, (3) protein melting analysis, (4) activity on additional AOPP herbicides substrates, and (5) mass spectrometry analysis on peptides to confirm identity. The biochemical analyses were also done with purified recombinant wild-type protein and MON-HT55 protein for comparison. For the kinetic analysis, a non-endpoint assay was conducted at 23° C. with either quizalofop-P or 2,4-D as substrate. The recombinant proteins for these assays were produced in bacteria and purified using a 6-His tag fused at the C-terminal end of the protein. Results of the kinetic analysis with either quizalofop-P or 2,4-D as substrate are presented for ten of the engineered proteins, wild-type protein, and MON-HT55 protein in Table 7 (standard error is shown in parenthetical). Vmax is expressed as specific activity, umol herbicide product mg enzyme-1 min-1; Km expressed as mM herbicide substrate. […] The differentiation of the protein kinetics for MON-HTI and MON-HT7 were surprising because there are only four amino acid differences between MON-HT1 and MON-HT7. Specifically, MON-HT1 has the following amino acids at the indicated position: 182; F105; T112; and V273, and MON-HT7 has the following amino acids at the indicated position: L82; V105; S112; and A273.
Kinetic analysis using a non-endpoint assay was conducted at 23° C. with either quizalofop-P or 2,4-D as substrate, as detailed above for purified protein of the wild-type enzyme, MON-HT1, MON-HT13, MON-HT15, and MON-HT17.

| Molecule | Vmax for 2,4-D relative to the wild-type enzyme |
| --- | --- |
| B4 | about half |

Same assay, conditions: 23° C.

| Molecule | Vmax with quizalofop-P greater than the wild-type enzyme |
| --- | --- |
| B4 | approximately 40% |

Same assay, conditions: 23° C.; purified His-tagged protein; standard error in parenthetical

| Molecule | Vmax Quizalofop |
| --- | --- |
| B6 | 0.44 (−0.04) umol herbicide product mg enzyme-1 min-1 |
| B1 | 0.77 (−0.04) umol herbicide product mg enzyme-1 min-1 |
| B2 | 0.30 (−0.02) umol herbicide product mg enzyme-1 min-1 |
| B3 | 0.39 (−0.03) umol herbicide product mg enzyme-1 min-1 |
| B4 | 1.94 (−0.12) umol herbicide product mg enzyme-1 min-1 |
| B5 | 0.57 (−0.03) umol herbicide product mg enzyme-1 min-1 |

Same assay, conditions: 23° C.; purified His-tagged protein; standard error in parenthetical; read-out: Km Quizalofop

| Molecule | Km |
| --- | --- |
| B6 | 320 µM |
| B1 | 380 µM |
| B2 | 240 µM |
| B3 | 100 µM |
| B4 | 330 µM |
| B5 | 170 µM |

Same assay, conditions: standard error in parenthetical, NDB = activity not robust enough for kinetic characterization

| Molecule | Vmax 2,4-D | Km 2,4-D |
| --- | --- | --- |
| B6 | 0.03 (−0.02) umol herbicide product mg enzyme-1 min-1 | – |
| B1 | 0.10 (−0.01) umol herbicide product mg enzyme-1 min-1 | – |
| B2 | NDB | NDB |
| B3 | NDB | NDB |
| B4 | 0.04 (−0.01) umol herbicide product mg enzyme-1 min-1 | – |
| B5 | NDB | NDB |

Same assay, conditions: standard error in parenthetical, NDB = activity not robust enough for kinetic characterization, read-out: Km 2,4-D

| Molecule | Km |
| --- | --- |
| B6 | 690 µM |
| B1 | 270 µM |
| B4 | 60 µM |
